Key:
[1] = target: T1, canine FAP (caFAP) extracellular domain (ECD) (domestic dog (Canis familiaris)); experiment: ELISA, 120 nM caFAP-ECD coated, antibody at 5 ug/mL
T1 construct: also called caFAP-ECD
T1 chain: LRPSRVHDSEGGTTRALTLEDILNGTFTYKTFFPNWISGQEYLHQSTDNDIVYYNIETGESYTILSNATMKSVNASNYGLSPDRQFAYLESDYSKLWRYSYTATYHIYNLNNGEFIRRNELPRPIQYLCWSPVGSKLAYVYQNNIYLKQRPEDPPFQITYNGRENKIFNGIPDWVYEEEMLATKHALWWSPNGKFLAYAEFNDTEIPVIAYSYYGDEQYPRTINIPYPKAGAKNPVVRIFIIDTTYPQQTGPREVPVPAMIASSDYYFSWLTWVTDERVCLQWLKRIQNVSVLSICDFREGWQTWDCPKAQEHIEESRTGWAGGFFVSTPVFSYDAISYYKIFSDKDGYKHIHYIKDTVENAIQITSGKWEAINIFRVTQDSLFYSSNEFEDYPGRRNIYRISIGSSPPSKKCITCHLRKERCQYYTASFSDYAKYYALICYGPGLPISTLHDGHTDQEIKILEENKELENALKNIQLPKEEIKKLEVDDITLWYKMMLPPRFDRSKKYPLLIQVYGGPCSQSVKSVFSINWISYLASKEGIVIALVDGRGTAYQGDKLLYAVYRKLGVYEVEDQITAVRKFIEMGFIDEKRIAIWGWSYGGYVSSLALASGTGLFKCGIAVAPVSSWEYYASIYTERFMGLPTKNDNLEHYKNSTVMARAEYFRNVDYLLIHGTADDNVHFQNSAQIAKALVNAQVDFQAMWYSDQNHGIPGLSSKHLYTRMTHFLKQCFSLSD
Method: Cross-reactivity of the anti-hFAP antibodies with caFAP-ECD was tested using ELISA. 120 nM of caFAP-ECD was coated on Maxisorp plates overnight at 4° C. […] Specifically, the C5 antibody was employed in IgG2a format, while all other antibodies, including the 7NP2 antibody, were in IgG1 format. The differences between the IgG2a and IgG1 formats are not expected to affect binding to FAP. After 3 washes with PBS, binding of the antibodies to caFAP-ECD was detected using an anti-human or anti-murine antibody HRP conjugate.

[2] = target: T2, human FAP-ECD (extracellular domain) recombinant fragment containing a C-terminal His6 tag (human, UniProt Q12884 26-760, randomly biotinylated with NHS ester-activated biotin (as used on the SA chip and Streptawell plates)); experiment: epitope ELISA on biotinylated human FAP, co-incubated with C5 IgG2a, 5 ug/mL
T2 construct: also called biotinylated human FAP-ECD; biotinylated human FAP
T2 sequence: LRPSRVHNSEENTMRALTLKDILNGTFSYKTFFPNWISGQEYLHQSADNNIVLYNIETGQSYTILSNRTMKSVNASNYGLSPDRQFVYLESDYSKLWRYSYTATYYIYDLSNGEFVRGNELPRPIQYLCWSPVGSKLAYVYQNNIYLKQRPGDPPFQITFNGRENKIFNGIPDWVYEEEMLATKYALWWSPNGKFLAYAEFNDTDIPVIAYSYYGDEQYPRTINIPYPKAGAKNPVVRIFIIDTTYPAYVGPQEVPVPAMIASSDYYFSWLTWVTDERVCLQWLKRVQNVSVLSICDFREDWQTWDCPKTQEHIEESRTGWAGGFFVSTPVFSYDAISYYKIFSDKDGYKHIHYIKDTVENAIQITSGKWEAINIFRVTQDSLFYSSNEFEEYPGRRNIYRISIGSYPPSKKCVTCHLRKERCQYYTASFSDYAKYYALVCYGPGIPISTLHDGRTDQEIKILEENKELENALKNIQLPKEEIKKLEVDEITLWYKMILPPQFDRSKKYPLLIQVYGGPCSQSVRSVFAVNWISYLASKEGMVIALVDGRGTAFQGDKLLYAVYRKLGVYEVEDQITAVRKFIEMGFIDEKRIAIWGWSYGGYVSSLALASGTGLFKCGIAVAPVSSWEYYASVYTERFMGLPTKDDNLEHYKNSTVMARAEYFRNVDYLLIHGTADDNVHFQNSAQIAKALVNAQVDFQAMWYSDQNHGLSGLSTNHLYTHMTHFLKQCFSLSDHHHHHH
Method: To evaluate binding, 100 nM of biotinylated human FAP were coated on Streptawell plates for 30 min at 37° C.
The C5 antibody in IgG2a format was incubated together with the 7NP2 antibody in IgG1 format, the F5 antibody in IgG1 format (WO2016/116399), the ESC11 antibody in IgG1 format (Fisher et al., (2012) Clin Cancer Res; 18(22)), or the (negative control) antibody KSF in IgG1 format for 1.5 h at room temperature at a concentration of 5 μg/mL in the antigen-coated wells. After 3 washes with PBS, binding of the antibodies to human FAP was detected using anti-human or anti-murine HRP conjugates (FIG. 7).

binding result [1]: binds
binding result [2]: binds
B1: anti-FAP antibody 7NP2 in IgG1 format (antibody, V domains shown)
VH: EVQLLESGGGLVQPGGSLRLSCAASGFTFSSYAMSWVRQAPGKGLEWVSAIGSVGGPTYYADSVKGRFTISRDNSKNTLYLQMNSLRAEDTAVYYCAKRLAWFDYWGQGTLVTVSS
VL: EIVLTQSPGTLSLSPGERATLSCRASQSVSSSYLAWYQQKPGQAPRLLIYGASSRATGIPDRFSGSGSGTDFTLTISRLEPEDFAVYYCQQSGKGPLTFGQGTKVEIKR
notes: also called 7NP2 IgG1; 7NP2(IgG1)

Reference: US20240199762A1 (PHILOGEN S P A, published 2024)
